One experiment has as its target T1, MTA1s-stop (human, UniProt Q13330 1-397).
T1 sequence: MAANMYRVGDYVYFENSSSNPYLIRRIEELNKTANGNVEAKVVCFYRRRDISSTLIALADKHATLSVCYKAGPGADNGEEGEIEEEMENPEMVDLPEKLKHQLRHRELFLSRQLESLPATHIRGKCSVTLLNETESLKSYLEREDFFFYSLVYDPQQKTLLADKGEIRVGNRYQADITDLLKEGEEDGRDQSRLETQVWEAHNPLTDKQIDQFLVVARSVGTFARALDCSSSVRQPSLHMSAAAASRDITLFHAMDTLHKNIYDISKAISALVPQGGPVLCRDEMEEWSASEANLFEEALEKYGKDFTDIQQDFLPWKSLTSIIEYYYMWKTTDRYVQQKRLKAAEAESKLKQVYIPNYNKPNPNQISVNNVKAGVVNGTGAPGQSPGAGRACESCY
Nature of the experiment: GST pull-down (FIG. 4C).

Another experiment deals with T2, MTA1s-del (human, UniProt Q13330 1-397).
T2 sequence: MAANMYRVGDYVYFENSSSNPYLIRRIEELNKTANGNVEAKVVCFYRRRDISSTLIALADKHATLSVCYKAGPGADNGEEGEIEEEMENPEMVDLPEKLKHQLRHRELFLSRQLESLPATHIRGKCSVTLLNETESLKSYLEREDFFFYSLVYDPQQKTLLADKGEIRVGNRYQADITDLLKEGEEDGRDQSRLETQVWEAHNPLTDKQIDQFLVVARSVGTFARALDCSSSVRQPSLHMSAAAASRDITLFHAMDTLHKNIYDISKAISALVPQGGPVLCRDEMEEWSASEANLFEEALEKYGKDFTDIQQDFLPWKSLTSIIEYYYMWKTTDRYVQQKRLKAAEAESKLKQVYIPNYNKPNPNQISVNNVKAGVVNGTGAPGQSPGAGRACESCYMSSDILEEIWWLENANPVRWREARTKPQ
Briefly: GST pull-down (FIG. 4C).

B1: GST-AF2 domain of the ER (receptor, UniProt P03372 282-595, looked up)
chain: SAGDMRAANLWPSPLMIKRSKKNSLALSLTADQMVSALLDAEPPILYSEYDPTRPFSEASMMGLLTNLADRELVHMINWAKRVPGFVDLTLHDQVHLLECAWLEILMIGLVWRSMEHPGKLLFAPNLLLDRNQGKCVEGMVEIFDMLLATSSRFRMMNLQGEEFVCLKSIILLNSGVYTFLSSTLKSLEEKDHIHRVLDKITDTLIHLMAKAGLTLQQQHQRLAQLLLILSHIRHMSNKGMEHLYSMKCKNVVPLYDLLLEMLDAHRLHAPTSRGGASVEETDQSHLATAGSTSSHSLQKYYITGEAEGFPATV
notes: domain: AF2 domain; Immobilized on glutathione-sepharose beads; also called AF2 domain of ERα; not shown: glutathione S-transferase
Consider B1, for which the binding result with MTA1s-stop and in the experiment with MTA1s-del was “no binding” in each case.

Source of the values: patent US20060204957A1 (published 2006).
